The numbers were not newly measured in publication PMC12493192, which cites them from elsewhere.

Where two headings read alike, the source gives them in different places.

The target in series [1] is GC-C (Homo sapiens) (UniProt P25092).
Series [2] shares this target. The source holds these as a separate data set.

UniProt P25092, sequence (P25092 24-430): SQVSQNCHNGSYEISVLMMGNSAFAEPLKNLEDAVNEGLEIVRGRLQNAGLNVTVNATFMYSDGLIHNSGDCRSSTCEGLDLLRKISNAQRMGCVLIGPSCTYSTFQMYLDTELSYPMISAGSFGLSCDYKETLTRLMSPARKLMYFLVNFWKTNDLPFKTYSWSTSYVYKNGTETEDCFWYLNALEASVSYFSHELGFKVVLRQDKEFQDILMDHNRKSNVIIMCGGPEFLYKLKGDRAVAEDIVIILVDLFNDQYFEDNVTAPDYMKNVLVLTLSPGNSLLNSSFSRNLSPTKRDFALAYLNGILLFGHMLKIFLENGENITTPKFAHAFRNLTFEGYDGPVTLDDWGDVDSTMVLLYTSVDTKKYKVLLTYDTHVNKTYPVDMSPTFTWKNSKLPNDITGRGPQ

By Kd is commonly meant a measure of binding affinity in units of concentration. In the case of guanylin (from UniProt Q02747), the Kd with GC-C (Homo sapiens) [1] was 10 nM. In the case of uroguanylin (from UniProt Q16661), in the series with GC-C (Homo sapiens) [2], the Kd was 1 nM.
